In assay [1] the target is T1, HLA-A*0201 on T2 cells (human).
T1 construct: the class I molecule on T2 cells that the added peptide stabilises; also called HLA-A2; HLA-A2 molecules
Briefly: T2 cell HLA-A*0201 stabilisation; 100 µM peptide overnight, Brefeldin A, BB7.2 mAb staining, flow cytometry; MFI minus no-peptide control. As for the experimental part: The cells were then incubated with Brefeldin A (Sigma, St. Louis, Mo.) at 10 μg/ml for 1 hour, washed, incubated at 37° C. for 0, 3, or 6 hours in the presence of Brefeldin A (0.5 μg/ml), and then stained with BB7.2 mAb.
On the technique in general: A flow cytometer gives signals particle by particle.

Assay [2] has as its target T1, HLA-A*0201 on T2 cells. Briefly: T2 cells incubated overnight with 0, 10 or 100 µM peptide, Brefeldin A, BB7.2 mAb staining, flow cytometry; fluorescence increased in a dose-dependent manner. As for the experimental part:
T2 cells were incubated overnight with 0 μM, 10 μM, or 100 μM of SEQ ID NO:11. The cells were then incubated with Brefeldin A (Sigma, St. Louis, Mo.) at 10 μg/ml for 1 hour, washed, incubated at 37° C. in the presence of Brefeldin A (0.5 μg/ml), and then stained with BB7.2 mAb. Fluorescence intensity was measured by flow cytometry.

The values that follow come from US20130183378A1 (CEDARS SINAI MEDICAL CENTER, published 2013).

With ILSAFSVYV (Free peptide added to T2 cells) [CD133-405], in the assay with HLA-A*0201 on T2 cells [1], the “MFI (0 hour)” value is 79.7 MFI, the “MFI (3 hour)” value was 69.3 MFI and the “MFI (6 hour)” value amounted to 44.5 MFI.

B1: CD133-301 (peptide)
peptide: SLNDPLCLV
notes: Free peptide added to T2 cells; also called peptide 301
For the molecule B1, in the assay with HLA-A*0201 on T2 cells [1], the “MFI (0 hour)” value turned out to be 10.7 MFI, the “MFI (3 hour)” value amounted to 14.3 MFI and the “MFI (6 hour)” value turned out to be 13.3 MFI.

B2: CD133-804 (peptide)
peptide: FLLPALIFAV
notes: Free peptide added to T2 cells; also called peptide 804
B2: in the assay with HLA-A*0201 on T2 cells [1], the “MFI (0 hour)” value is 89 MFI, the “MFI (3 hour)” value came out at 67.6 MFI and the “MFI (6 hour)” value was 34.7 MFI.

B3: CD133-117 (peptide)
peptide: LLFIILMPLV
notes: Free peptide added to T2 cells; also called peptide 117
Turning to B3, in the assay with HLA-A*0201 on T2 cells [1], the “MFI (0 hour)” value was 5.5 MFI, the “MFI (3 hour)” value was determined as 7.5 MFI and the “MFI (6 hour)” value was found to be 1.01 MFI.

B4: mouse counterpart of SEQ ID NO:1, MLLQVSHYL (SEQ ID NO:11) (peptide)
peptide: MLLQVSHYL
notes: Free peptide added to T2 cells at 0, 10 or 100 µM; also called mouse peptide
For the molecule B4, the binding result with HLA-A*0201 on T2 cells [2] is on record as “binds”.

B5: CD133-708 (peptide)
peptide: GLLERVTRI
notes: Free peptide added to T2 cells; also called peptide 708
Turning to B5, in the assay with HLA-A*0201 on T2 cells [1], the “MFI (0 hour)” value came to 13.1 MFI, the “MFI (3 hour)” value was 14.8 MFI and the “MFI (6 hour)” value turned out to be 1.3 MFI.
